Data taken from patent publication US20220348674A1 (APOLLOMICS, published 2022).
Substitutions are numbered along the chain they refer to. One block for each binder: values may come before it.

Columns and labels:
[1] = molecular target: T1, purified recombinant human CD40 protein (human, UniProt P25942 21-193); assay: ELISA on coated recombinant human CD40; chimeric antibody supernatant
T1 construct: also called recombinant CD40
Description: ELISA plate was coated with purified recombinant CD40 protein in coating buffer at lug/ml overnight. After washed for 3 times, the plate was blocked with 1% BSA, and then cell culture supernatants containing rabbit-human chimeric CD40 antibodies were added to the plate. For detection of the antibody binding to CD40 protein, goat anti-human Fc polyclonal antibody conjugated to alkaline phosphatase was used.

[2] = molecular target: CD40 on HEKBlue CD40L reporter cells (UniProt P25942 21-277, limits assumed); assay: cell-based or functional assay
CD40 on HEKBlue CD40L reporter cells, sequence (P25942 21-277 limits assumed): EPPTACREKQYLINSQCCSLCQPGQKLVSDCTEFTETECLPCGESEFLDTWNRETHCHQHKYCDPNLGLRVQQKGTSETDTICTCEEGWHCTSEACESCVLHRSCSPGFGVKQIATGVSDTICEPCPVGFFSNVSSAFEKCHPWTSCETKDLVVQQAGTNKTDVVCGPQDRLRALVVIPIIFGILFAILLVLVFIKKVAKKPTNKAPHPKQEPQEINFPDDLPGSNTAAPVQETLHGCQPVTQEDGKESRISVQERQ

[3] = molecular target: T2, cell surface human CD40 on HEK-CD40 cells (human, UniProt P25942 21-277); assay: flow cytometry, titration on HEK-CD40 cells, CD40 MFI, anti-human IgG secondary antibody
T2 construct: whole, on cells; also called cell surface CD40
T2 sequence (P25942 21-277): as the sequence (P25942 21-277 limits assumed) above
Description: HEK-CD40 were collected and plated at 10⁵ cells per well in 96-well round bottom plate in FACS buffer. Serial dilutions of antibodies (Control IgG1, CP870,893, APX005m and 3B5) in 100 ul were incubated with the HEK-CD40 cells for 60 min at 4° C. Cells were washed 3 times with 200 ul FACS buffer. Cell-bound antibodies were detected using an APC-conjugated secondary antibody specific to human IgG heavy and light chain. After incubating 30 min with secondary antibody, HEK-CD40 cells were washed 3 times with 200 ul FACS buffer and resuspended in 200 ul FACS with 1 ug/ml DAPI. Flow cytometric analyses were performed using Attune N×T flow cytometer (ThermoFisher Scientific, Waltham, Mass.). After gating on FCS-SSC parameters to exclude debris and selectively gating DAPI negative cells on DAPI-SSC parameters to exclude dead cells, the geometric mean fluorescence intensity (MFI) of antibodies was determined using FlowJo v10 (BD Bioscience, San Jose, Calif.). Dose-response curves were generated and EC50s calculated using GraphPad Prism 8 (GraphPad Software, San Diego, Calif.).

[4] = molecular target: T1, purified recombinant human CD40 protein; assay: Octet (BLI), recombinant CD40

T1 sequence (P25942 21-193 limits assumed): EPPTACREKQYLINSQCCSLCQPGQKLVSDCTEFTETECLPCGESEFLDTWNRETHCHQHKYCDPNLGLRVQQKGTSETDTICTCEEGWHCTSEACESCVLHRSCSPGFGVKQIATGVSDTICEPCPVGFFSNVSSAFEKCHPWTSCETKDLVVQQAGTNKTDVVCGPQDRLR

OD405 [1]: 1.62 OD405
B1: 2E3 rabbit-human chimeric anti-CD40 antibody (antibody, V domains shown)
VH: QSVEESGGRLVTPGTPLTLTCTVSGFSLSTYAMSWVRQAPGKGLEWIGIIDGSSFTVYANWAKGRFTISKTSTTVDLKMTSLTASDTATYFCARGATFFGLWGPGTLVTVSS
VL: DVVMTQTPASVSAAVGGTVTIKCQASQSISGVLAWYQQKPGQPPKLLIYRAADLASGVPSRFKGSGSGTEFTLTINDLECDDAATYYCQSYYYSNSGSYSYAFGGGTEVVVK
notes: tested as cell culture supernatant

OD405 [1]: 1.48 OD405
B2: 3B5 rabbit-human chimeric anti-CD40 antibody (antibody, V domains shown)
VH: QSVEESGGRLITPGTPLTLTCTVSGFSLSTYAVSWVRQAPGKGLEWIGIIDSGGGTAYASWVKGRFTISKTSTTVDLKITSPTTEDTATYFCARGVTFFGLWGPGTLVTVSS
VL: DIVMTQTPASVEAAVGGTVTIKCQASQSISNYLSWYQQKPGQPPKLLIYRASDLASGVPSRFKGSGSGTEFTLTISDLECADAATYYCQAYYYSGGGSYDYAFGGGTEVVVK
notes: as for B1

OD405 [1]: 1.65 OD405
B3: 4A7 rabbit-human chimeric anti-CD40 antibody (antibody, V domains shown)
VH: QSVEESGGRLVTPGTPLTLTCTVSGFSLSTYAMSWVRQAPGKGLEWIGIIDGGGFAVYANWAKGRFTISKASTTVDLKLPSPTTEDTATYFCARGVTFFNLWGPGTLVTVSS
VL: B2 VL with G17D, N31S, Y32A, S34A, D53T, A55E, A90S, G95S
notes: as for B1

IC50 (read off the curve) [2]: ~0.06 µg/mL
EC50 [3]: 0.69 µg/mL
Kd [4]: < 1 pM
koff [4]: < 1e-07 s⁻¹
kon [4]: 1.06e+06 M⁻¹ s⁻¹
B4: 3B5, humanized anti-CD40 mAb, IgG1 isotype (antibody, V domains shown)
VH: EVQLVESGGGLIQPGGSLRLSCAVSGFSLSTYAVSWVRQAPGKGLEWVGIIDSGGGTAYASWVKGRFTISRDNSKNTLYLQMNSLRAEDTAVYYCARGVTFFGLWGQGTLVTVSS
VL: DIVMTQSPSTLSASVGDRVTITCQASQSISNYLSWYQQKPGKAPKLLIYRASDLASGVPSRFSGSGSGTEFTLTISSLQPDDFATYYCQAYYYSGGGSYDYAFGGGTKVEIK
notes: also called HZD_3B5; 3B5 antibody

OD405 [1]: 1.39 OD405
B5: 3E12 rabbit-human chimeric anti-CD40 antibody (antibody, V domains shown)
VH: QSVKESEGGLFKPTDTLTLTCTVSGFSFSNYRMIWVRQAPGNGLEWIGVIDRNDNTYYATWAKSRSTITRNTNLNTVTLKMTSLTAADTATYFCARDTDYTTGGIWGPGTLVTVSS
VL: DIVMTQTPASVSAAVGGTVTIKCQASQNIGDNLAWHQQKPGQPPKLLIYGASTLASGVPSRFKGSGSRTEYTLTISDLECADAATYYCQSNYYSTSSSYYNSFGGGTEVVVK
notes: as for B1

OD405 [1]: 1.72 OD405
B6: 4B7 rabbit-human chimeric anti-CD40 antibody (antibody, V domains shown)
VH: B5 VH with S27T, F28L, M33V, V49G, N53S, D54A, N55V, T56A, T60S, T102S
VL: DIVMTQTPSSVSAAVGGTVTIKCQASQNIGGNLAWYQQKPGQPPKLLIYGSSTLESGVPSRFSGSGSGTEYTLTISDLQCADAATYYCQSNYWSRSSSYVNSFGGGTEVVVK
notes: as for B1
